Experiment [1] concerns the target T1, SNAP25206, full-length SNAP25 (human) (human, UniProt P60880 1-206). Description: IHC, human back skin biopsies +/- onabotulinumtoxinA (FIG. 9).
Experiment [2] deals with T2, SNAP25206, full-length SNAP25 (rat) (rat, UniProt P60881 1-206). Description: Western blot, rat embryonic cortical cell lysates +/- BoNT/A. (In general: A western blot detects proteins with antibodies after separation by electrophoresis.)
Experiment [3] has as its target T2, SNAP25206, full-length SNAP25 (rat). Description: IHC, vehicle-treated rat glabrous skin (FIG. 8F-J).
For experiment [4], the target named is SNAP25197, BoNT/A-cleaved SNAP25 (human) (human, UniProt P60880 1-197). Description: Western blot, SiMa cell lysates +/- BoNT/A.
SNAP25197, BoNT/A-cleaved SNAP25 (human), sequence (P60880 1-197 limits assumed): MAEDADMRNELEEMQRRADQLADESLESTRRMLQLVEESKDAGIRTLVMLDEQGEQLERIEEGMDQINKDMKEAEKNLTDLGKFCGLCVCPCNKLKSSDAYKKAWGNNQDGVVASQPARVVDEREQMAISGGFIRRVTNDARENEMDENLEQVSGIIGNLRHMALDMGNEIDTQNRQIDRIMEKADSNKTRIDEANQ
The target of experiment [5] is SNAP25197, BoNT/A-cleaved SNAP25 (rat) (rat, UniProt P60881 1-197). In words: Western blot, summary (rat cortical lysates; SiMa lysates also run).
SNAP25197, BoNT/A-cleaved SNAP25 (rat), sequence (P60881 1-197 limits assumed): as the sequence (P60880 1-197 limits assumed) above
Experiment [6] deals with T3, SNAP25180, BoNT/E-cleaved SNAP25 (human) (human, UniProt P60880 1-180).
T3 construct: range 1-180
T3 sequence (P60880 1-180 limits assumed): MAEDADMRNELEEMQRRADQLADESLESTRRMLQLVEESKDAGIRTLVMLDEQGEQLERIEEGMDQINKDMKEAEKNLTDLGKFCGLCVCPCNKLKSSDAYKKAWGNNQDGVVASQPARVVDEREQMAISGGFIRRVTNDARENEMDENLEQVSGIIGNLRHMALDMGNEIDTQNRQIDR
Description: Western blot, SiMa cell lysates treated with BoNT/A, BoNT/C, BoNT/E or no toxin.

Experiment [7] addresses T1, SNAP25206, full-length SNAP25 (human). The description is as above.
For experiment [8], the target named is T4, SNAP25198, BoNT/C-cleaved SNAP25 (human) (human, UniProt P60880 1-198).
T4 construct: range 1-198
T4 sequence (P60880 1-198 limits assumed): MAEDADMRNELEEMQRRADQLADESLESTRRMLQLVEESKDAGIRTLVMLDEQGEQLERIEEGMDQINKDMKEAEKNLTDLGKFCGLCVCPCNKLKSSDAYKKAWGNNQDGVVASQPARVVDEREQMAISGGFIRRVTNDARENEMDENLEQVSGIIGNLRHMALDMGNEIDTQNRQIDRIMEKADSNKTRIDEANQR
The description is as above.

T2 sequence (P60881 whole entry): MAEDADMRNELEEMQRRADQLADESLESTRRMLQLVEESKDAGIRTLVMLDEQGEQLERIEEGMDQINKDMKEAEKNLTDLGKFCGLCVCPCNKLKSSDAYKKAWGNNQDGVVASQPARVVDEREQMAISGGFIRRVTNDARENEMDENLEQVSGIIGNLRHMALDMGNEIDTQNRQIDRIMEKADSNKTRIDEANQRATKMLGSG
T1 sequence (P60880 whole entry): as the sequence (P60881 whole entry) above

B1: Ab635 anti-SNAP25197 rMAb (Murine-3C1A5) (antibody)
heavy: QVKLQESGAELVKPGASVKISCKASGYTFTDHSIHWVKQKPGQGLEWIGYLFPGNGNFEYNEKFKGKATLTADKSSSTVYMYLNSLTSEDSAVYFCKRMGYWGQGTTVTVSSAKTTPPSVYPLAPGSAAQTNSMVTLGCLVKGYFPEPVTVTWNSGSLSSGVHTFPAVLESDLYTLSSSVTVPSSPRPSETVTCNVAHPASSTKVDKKIVPRDCGCKPCICTVPEVSSVFIFPPKPKDVLTITLTPKVTCVVVDISKDDPEVQFSWFVDDVEVHTAQTQPREEQFNSTFRSVSELPIMHQDWLNGKEFKCRVNSAAFPAPIEKTISKTKGRPKAPQVYTIPPPKEQMAKDKVSLTCMITDFFPEDITVEWQWNGQPAENYKNTQPIMNTNGSYFVYSKLNVQKSNWEAGNTFTCSVLHEGLHNHHTEKSLSHSPGK
light: not shown
For the molecule B1, the binding result in experiment [1] and in experiment [2] was “no binding” throughout.

B2: original non-recombinant 3C1A5 mAb purified from ascites (antibody, V domains shown)
VH: QVKLQESGAELVKPGASVKISCKASGYTFTDHSIHWVKQKPGQGLEWIGYLFPGNGNFEYNEKFKGKATLTADKSSSTVYMYLNSLTSEDSAVYFCKRMGYWGQGTTVTVSS
VL: DVVMTQTPLTLSVTIGQPASISCKSSQSLLNTNGKTYLTWLIQRPGQSPQRLIYLVSKLDSGVPDRFSGSGSGTDFTLKISRVEAEDLGVYYCLQSSHFPFTFGSGTKLEIK
As to B2, in experiment [3], the binding result is “no binding”.

B3: Ab632 anti-SNAP25197 rMAb (Human-3C1A5) (antibody)
heavy: not shown
light: DVVMTQTPLTLSVTIGQPASISCKSSQSLLNTNGKTYLTWLIQRPGQSPQRLIYLVSKLDSGVPDRFSGSGSGTDFTLKISRVEAEDLGVYYCLQSSHFPFTFGSGTKLEIKRTVAAPSVFIFPPSDEQLKSGTASVVCLLNNFYPREAKVQWKVDNALQSGNSQESVTEQDSKDSTYSLSSTLTLSKADYEKHKVYACEVTHQGLSSPVTKSFNRGEC
Turning to B3, the binding result in experiment [4] is “binds”; in experiment [5], “binds”; in experiment [6], “no binding”; in experiment [7], “no binding”; in experiment [8] it was “no binding”; in experiment [2], “no binding”.

The values above are taken from US20190317095A1 (ALLERGAN, published 2019).
